Experimental data published in publication PMC2852888.
Where two headings read alike, the source gives them in different places.

How the values were obtained:
[1] = target: Max b/HLH/Z domain (amino acids 22-113) (UniProt P61244); test: fluorescence polarisation
[2] = target: Max b/HLH/Z domain (amino acids 22-113) (UniProt P61244); test: fluorescence polarisation; remark: listed apart in the source
[3] = target: Max b/HLH/Z domain (amino acids 22-113) (UniProt P61244); test: fluorescence polarisation; remark: listed apart in the source
[4] = target: Max b/HLH/Z domain (amino acids 22-113) (UniProt P61244); test: fluorescence polarisation; remark: listed apart in the source
Max b/HLH/Z monomer = Max b/HLH/Z monomer (UniProt P61244 22-113); test: stopped-flow fluorescence anisotropy
[5] = target: T1, c-Myc b/HLH/Z;Max b/HLH/Z (;, UniProt P01106-1;P61244 347-439;22-113, |); test: stopped-flow fluorescence anisotropy
Max b/HLH/Z [6] = target: T2, Max b/HLH/Z (UniProt P61244 22-113); test: stopped-flow fluorescence anisotropy
Mad1;Max b/HLH/Z [7] = target: T3, Mad1;Max b/HLH/Z (;, UniProt Q05195;P61244 1-221;22-113, |); test: stopped-flow fluorescence anisotropy
[8] = target: T1, c-Myc b/HLH/Z;Max b/HLH/Z; test: stopped-flow fluorescence anisotropy; remark: listed apart in the source
Mad1;Max b/HLH/Z [9] = target: T3, Mad1;Max b/HLH/Z; test: stopped-flow fluorescence anisotropy; remark: listed apart in the source
Max b/HLH/Z [10] = target: T2, Max b/HLH/Z; test: stopped-flow fluorescence anisotropy; remark: listed apart in the source

Max b/HLH/Z domain (amino acids 22-113), sequence (P61244 22-113): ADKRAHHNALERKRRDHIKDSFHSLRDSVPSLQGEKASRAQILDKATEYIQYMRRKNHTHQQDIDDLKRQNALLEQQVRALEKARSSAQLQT
T3 sequence (Q05195 whole entry, chain 1 of 2): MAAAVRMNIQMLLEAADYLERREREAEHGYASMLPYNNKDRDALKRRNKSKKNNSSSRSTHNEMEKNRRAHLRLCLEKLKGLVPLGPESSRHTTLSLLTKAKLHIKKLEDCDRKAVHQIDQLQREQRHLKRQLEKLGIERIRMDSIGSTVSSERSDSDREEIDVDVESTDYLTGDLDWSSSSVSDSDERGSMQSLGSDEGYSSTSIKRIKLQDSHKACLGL
T3 sequence (P61244 22-113, chain 2 of 2): as the sequence (P61244 22-113) above
T2 sequence (P61244 22-113): as above
T1 sequence (P01106 362-454, chain 1 of 2): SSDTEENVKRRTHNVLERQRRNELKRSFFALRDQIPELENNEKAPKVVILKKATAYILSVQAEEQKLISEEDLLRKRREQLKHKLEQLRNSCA
T1 sequence (P61244 22-113, chain 2 of 2): as the sequence (P61244 22-113) above
Max b/HLH/Z monomer, sequence (P61244 22-113): as above

Molecule: c-Myc b/HLH/Z domain (amino acids 347-439) (domain or fragment)
- kobs (association rate constant) [1]: 109 s⁻¹
- kobs (association rate constant) [2]: 67 s⁻¹
- association rate constant with the Max·DNA complex [3]: 126 s⁻¹
- k2 (forward rate constant of the second step, from the intercept) [3]: 91 s⁻¹
- kobs (association rate constant) [3]: 118 s⁻¹
- kobs (association rate constant) [4]: 90 s⁻¹

B1: MLP E-box 16-mer, label not stated (dsDNA)
DNA 1: TAGGCCACGTGACCGG
DNA 2: CCGGTCACGTGGCCTA
- binding result (Max b/HLH/Z monomer): binds
- binding result [5]: binds
- binding result (Max b/HLH/Z [6]): binds
- binding result (Mad1;Max b/HLH/Z [7]): binds

B2: MLP E-box 16-mer, FITC-labelled (dsDNA)
DNA 1: TAGGCCACGTGACCGG
DNA 2: CCGGTCACGTGGCCTA
- binding result [8]: binds
- binding result (Mad1;Max b/HLH/Z [9]): binds
- binding result (Max b/HLH/Z [10]): binds
